The text below walks through data of IntAct's records for PubMed 22902367.

B1: Nectin-1 (Homo sapiens), Q15223 (parent)
chain: MARMGLAGAAGRWWGLALGLTAFFLPGVHSQVVQVNDSMYGFIGTDVVLHCSFANPLPSVKITQVTWQKSTNGSKQNVAIYNPSMGVSVLAPYRERVEFLRPSFTDGTIRLSRLELEDEGVYICEFATFPTGNRESQLNLTVMAKPTNWIEGTQAVLRAKKGQDDKVLVATCTSANGKPPSVVSWETRLKGEAEYQEIRNPNGTVTVISRYRLVPSREAHQQSLACIVNYHMDRFKESLTLNVQYEPEVTIEGFDGNWYLQRMDVKLTCKADANPPATEYHWTTLNGSLPKGVEAQNRTLFFKGPINYSLAGTYICEATNPIGTRSGQVEVNITEFPYTPSPPEHGRRAGPVPTAIIGGVAGSILLVLIVVGGIVVALRRRRHTFKGDYSTKKHVYGNGYSKAGIPQHHPPMAQNLQYPDDSDDEKKAGPLGGSSYEEEEEEEEGGGGGERKVGGPHPKYDEDAKRPYFTVDEAEARQDGYGDRTLGYQYDPEQLDLAENMVSQNDGSFISKKEWYV

One experiment covers variants of B1. The settings on record: with NECTIN3, Q9NQS3-1.
NECTIN3, Q9NQS3-1, sequence (Q9NQS3 whole entry, looked up): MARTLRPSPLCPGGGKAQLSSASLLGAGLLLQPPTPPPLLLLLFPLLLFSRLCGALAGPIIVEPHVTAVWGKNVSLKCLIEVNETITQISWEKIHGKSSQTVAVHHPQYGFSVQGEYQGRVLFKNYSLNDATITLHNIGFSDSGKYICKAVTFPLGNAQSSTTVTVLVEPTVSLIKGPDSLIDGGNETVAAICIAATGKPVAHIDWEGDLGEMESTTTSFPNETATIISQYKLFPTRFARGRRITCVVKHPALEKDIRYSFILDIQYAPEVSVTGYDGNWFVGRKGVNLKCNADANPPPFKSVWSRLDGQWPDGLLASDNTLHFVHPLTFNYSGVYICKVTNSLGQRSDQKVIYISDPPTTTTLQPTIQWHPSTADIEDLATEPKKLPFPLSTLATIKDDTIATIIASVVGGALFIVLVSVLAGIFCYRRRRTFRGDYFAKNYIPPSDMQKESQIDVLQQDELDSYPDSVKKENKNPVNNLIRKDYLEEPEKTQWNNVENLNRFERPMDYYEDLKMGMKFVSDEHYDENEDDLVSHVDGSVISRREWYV
For MARMGLAGAAGRWWGLALGLTAFFLPGVHSQVVQVNDSMYGFIGTDVVLHCSFANPLPSVKITQVTWQKSTNGSKQNVAIYNPSMGVSVLAPYRERVEFLRPSFTDGTIRLSRLELEDEGVYICEFATDPTGNRESQLNLTVMAKPTNWIEGTQAVLRAKKGQDDKVLVATCTSANGKPPSVVSWETRLKGEAEYQEIRNPNGTVTVISRYRLVPSREAHQQSLACIVNYHMDRFKESLTLNVQYEPEVTIEGFDGNWYLQRMDVKLTCKADANPPATEYHWTTLNGSLPKGVEAQNRTLFFKGPINYSLAGTYICEATNPIGTRSGQVEVNITEFPYTPSPPEHGRRAGPVPTAIIGGVAGSILLVLIVVGGIVVALRRRRHTFKGDYSTKKHVYGNGYSKAGIPQHHPPMAQNLQYPDDSDDEKKAGPLGGSSYEEEEEEEEGGGGGERKVGGPHPKYDEDAKRPYFTVDEAEARQDGYGDRTLGYQYDPEQLDLAENMVSQNDGSFISKKEWYV [F129D], the “effect of a mutation on the interaction” value is reported as “disrupting interaction strength”.

In another experiment the parent is B1. As to conditions: with nect4_human NECTIN4, Q96NY8.
nect4_human NECTIN4, Q96NY8, sequence (Q96NY8 whole entry): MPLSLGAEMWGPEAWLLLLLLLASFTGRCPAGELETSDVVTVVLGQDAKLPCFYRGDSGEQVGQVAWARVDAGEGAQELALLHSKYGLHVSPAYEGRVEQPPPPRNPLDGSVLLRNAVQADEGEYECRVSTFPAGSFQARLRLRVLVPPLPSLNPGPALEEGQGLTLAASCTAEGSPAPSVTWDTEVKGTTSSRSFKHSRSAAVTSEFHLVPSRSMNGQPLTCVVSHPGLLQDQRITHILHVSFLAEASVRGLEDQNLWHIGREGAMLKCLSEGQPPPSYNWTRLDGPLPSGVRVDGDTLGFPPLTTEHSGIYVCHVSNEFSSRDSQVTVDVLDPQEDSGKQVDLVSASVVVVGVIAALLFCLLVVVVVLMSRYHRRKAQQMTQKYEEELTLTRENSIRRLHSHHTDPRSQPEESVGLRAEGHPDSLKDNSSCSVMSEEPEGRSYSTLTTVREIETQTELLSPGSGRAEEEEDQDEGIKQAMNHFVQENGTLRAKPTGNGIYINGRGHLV
MARMGLAGAAGRWWGLALGLTAFFLPGVHSQVVQVNDSMYGFIGTDVVLHCSFANPLPSVKITQVTWQKSTNGSKQNVAIYNPSMGVSVLAPYRERVEFLRPSFTDGTIRLSRLELEDEGVYICEFATDPTGNRESQLNLTVMAKPTNWIEGTQAVLRAKKGQDDKVLVATCTSANGKPPSVVSWETRLKGEAEYQEIRNPNGTVTVISRYRLVPSREAHQQSLACIVNYHMDRFKESLTLNVQYEPEVTIEGFDGNWYLQRMDVKLTCKADANPPATEYHWTTLNGSLPKGVEAQNRTLFFKGPINYSLAGTYICEATNPIGTRSGQVEVNITEFPYTPSPPEHGRRAGPVPTAIIGGVAGSILLVLIVVGGIVVALRRRRHTFKGDYSTKKHVYGNGYSKAGIPQHHPPMAQNLQYPDDSDDEKKAGPLGGSSYEEEEEEEEGGGGGERKVGGPHPKYDEDAKRPYFTVDEAEARQDGYGDRTLGYQYDPEQLDLAENMVSQNDGSFISKKEWYV [F129D]: the “effect of a mutation on the interaction” value was “disrupting interaction strength”.
